Reference: the supplement of paper PMC9170038

System: K4 kissing-loop RNA reporter
Test: apparent KD of K4 kissing-loop reporter; higher = weaker reporter binding
Conditions: Eterna round: R107
Experimental: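 RNA-MaP round R107: designed RNA switches with theophylline, tryptophan, arginine or FMN aptamers are transcribed on-chip within common flanks. They are titrated with a labelled K4 kissing-loop RNA reporter in RNA-MaP buffer (100 mM Tris pH 7.5, 80 mM KCl, 4 mM MgCl2), without ligand or with the indicated ligand. Median apparent KD per design.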

[1] = input ligand: theophylline 20 uM
[2] = input ligand: tryptophan 2.4 mM
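Note: bound reporter read as fluorescence of individual clusters on recovered sequencing chips by microscopy, with normalized cluster intensities fitted with a binding model.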

Sequence | apparent KD of K4 kissing-loop reporter (input ligand: FMN 200 uM) | apparent KD of K4 kissing-loop reporter (input ligand: arginine 13.2 mM) | apparent KD of K4 kissing-loop reporter (input ligand: none) | apparent KD of K4 kissing-loop reporter [1] | apparent KD of K4 kissing-loop reporter [2]
AAUAAAAGAUGUUUAGGAAAGAAAAUGGAAGGAGCGUGCGAAAGCACAGGUAGGUCGCCAGUGAUGUUGGAACCUGAGCAUCAAA [#SwitchBubble 15 #K4Late] | 827 nM | 479 nM | 699 nM | 677 nM | 436 nM
AAUAAAAUCACGGCCGCCACUGAUUUCCGUAUUAGGAGUGAUGUUCCUAUGACUAUAUAAUUUAACAGGACCGGGUGAAUAUUUA [#21 K4 Tryptophan B Exclusion] | 111 nM | 109 nM | 110 nM | 107 nM | 97.8 nM
AAUAAUAUACAAAGGCGAACGAAUAGGGAAGGAGCGCGAUAUAACGCAGGUAGGUCGCCCAUAUUUUUAGUGAUGUUAGAGAAUA [E. Arginine A Tesla 1] | 938 nM | 762 nM | 766 nM | 920 nM | 757 nM
AAUGUACAAGUGAUGUUUGUACUUUCCGAAGGAGCGUCAAAUAAGACAGGUAGGUCGCGGAUACUCUAAAUAAUCAGGUCAUUAA [JR_ExcArginiA_Sub019] | 89.4 nM | 88 nM | 88.9 nM | 87.2 nM | 85 nM
AAUGUACAGGGAAGGAGCGUAGUCCAGUGAUGUUGGAAUUAAAUACCAGUGAUGUUGGUUAUACAGGUAGGUCGCCCUAAAGUGC [KL-XARG-B20] | 86.3 nM | 72.3 nM | 81.9 nM | 89.5 nM | 73.2 nM
AAUUCAGUGAUGUUGGAAGGCAGGCGGGAUACCAGCGGAGAAUAACGCCCUUGGCAGCCCAAAUAUCCCAAAUAGAUAAUAGUUC [Same State - Theophylline A (Freestyle 2)] | 474 nM | 353 nM | 481 nM | 475 nM | 450 nM
AAUUUAUUAACUGAUACCAGACUUUAUUAUUUGUAAAUUACUAGUGAUGUUAGUGUUUCUGUCCCUUGGCAGCAGUAUUUAUUAA [JR_SSTheophyB_Sub024] | 78.8 nM | 142 nM | 90.3 nM | 134 nM | 70.5 nM
AAUUUUAAUAAUAAAUAAUAAAUAAAUGAUACCAGUAUUUUUUUUUACCCUUGGCAGCGUAUAUAAGGGCAGUGAUGUUGUCAAA [whbob_SS_Theo_A_w58] | 205 nM | 136 nM | 153 nM | 196 nM | 169 nM
